Laboratory results from IntAct's records for PubMed 23460737.

B1: Protein THEMIS (Mus musculus), Q8BGW0 (parent)
chain: MALSLEEFVYSLDLRTLPRVLEIQSGIYFEGSVYEMFGNECCLSTGEVIKITGLKIKKMMAEICEGAIGGCESQKPFELPMNFPGLFKVMADKTPYLSIEEITRTVNIGPSRLGHPCFYHLKDIKLENLIIKQGEPIRFNSVEEINGETLVNCGVVRNHQSHSFTLPLSQEGEFYECEDEHIYTLKEIVEWKIPKNRTRTVKLTDFSNKWDSTNPFPEDFYGTLILKPVYEIQGVLKFQKDIVRILPSLDVEVKDITDSYDANWFLQLLSTDDLFEMTSKEFPVVAEVVEISQGNHLPQSILQREKTIVIHKKYQASRILASEIRSNFPKRHFLIPISYKGKFKRRPREFPTAYDLQIAKSRKETLHVVATKAFHTLHKELSPVSVGDQFLVHHSETTEVVFEGTRKVNVLTCEKVLNKTREDAQLPLYMEGGFVEVIHDKKQYQISELCTQFCWPFNVKVAVRDLSIKDDILAATPGLQLEEDITDSYLLISDFANPEECWEIPMSRLNMTVRLVNGSSLPADAGLLQVRSFVEEITEEQYYMMRRYESSLSHPPPRPPKHPSAEEMKLTLLSLAEERTINLPKSLKSHHVDRPKKLPSDESGQDSRAPVGFQNDVADVERQKSKHGPLQPQAPL
B2: Protein THEMIS (Homo sapiens), Q8N1K5-1 (parent)
chain: MALSLEEFVHSLDLRTLPRVLEIQAGIYLEGSIYEMFGNECCFSTGEVIKITGLKVKKIIAEICEQIEGCESLQPFELPMNFPGLFKIVADKTPYLTMEEITRTIHIGPSRLGHPCFYHQKDIKLENLIIKQGEQIMLNSVEEIDGEIMVSCAVARNHQTHSFNLPLSQEGEFYECEDERIYTLKEIVEWKIPKNRTRTVNLTDFSNKWDSTNPFPKDFYGTLILKPVYEIQGVMKFRKDIIRILPSLDVEVKDITDSYDANWFLQLLSTEDLFEMTSKEFPIVTEVIEAPEGNHLPQSILQPGKTIVIHKKYQASRILASEIRSNFPKRHFLIPTSYKGKFKRRPREFPTAYDLEIAKSEKEPLHVVATKAFHSPHDKLSSVSVGDQFLVHQSETTEVLCEGIKKVVNVLACEKILKKSYEAALLPLYMEGGFVEVIHDKKQYPISELCKQFRLPFNVKVSVRDLSIEEDVLAATPGLQLEEDITDSYLLISDFANPTECWEIPVGRLNMTVQLVSNFSRDAEPFLVRTLVEEITEEQYYMMRRYESSASHPPPRPPKHPSVEETKLTLLTLAEERTVDLPKSPKRHHVDITKKLHPNQAGLDSKVLIGSQNDLVDEEKERSNRGATAIAETFKNEKHQK
partner: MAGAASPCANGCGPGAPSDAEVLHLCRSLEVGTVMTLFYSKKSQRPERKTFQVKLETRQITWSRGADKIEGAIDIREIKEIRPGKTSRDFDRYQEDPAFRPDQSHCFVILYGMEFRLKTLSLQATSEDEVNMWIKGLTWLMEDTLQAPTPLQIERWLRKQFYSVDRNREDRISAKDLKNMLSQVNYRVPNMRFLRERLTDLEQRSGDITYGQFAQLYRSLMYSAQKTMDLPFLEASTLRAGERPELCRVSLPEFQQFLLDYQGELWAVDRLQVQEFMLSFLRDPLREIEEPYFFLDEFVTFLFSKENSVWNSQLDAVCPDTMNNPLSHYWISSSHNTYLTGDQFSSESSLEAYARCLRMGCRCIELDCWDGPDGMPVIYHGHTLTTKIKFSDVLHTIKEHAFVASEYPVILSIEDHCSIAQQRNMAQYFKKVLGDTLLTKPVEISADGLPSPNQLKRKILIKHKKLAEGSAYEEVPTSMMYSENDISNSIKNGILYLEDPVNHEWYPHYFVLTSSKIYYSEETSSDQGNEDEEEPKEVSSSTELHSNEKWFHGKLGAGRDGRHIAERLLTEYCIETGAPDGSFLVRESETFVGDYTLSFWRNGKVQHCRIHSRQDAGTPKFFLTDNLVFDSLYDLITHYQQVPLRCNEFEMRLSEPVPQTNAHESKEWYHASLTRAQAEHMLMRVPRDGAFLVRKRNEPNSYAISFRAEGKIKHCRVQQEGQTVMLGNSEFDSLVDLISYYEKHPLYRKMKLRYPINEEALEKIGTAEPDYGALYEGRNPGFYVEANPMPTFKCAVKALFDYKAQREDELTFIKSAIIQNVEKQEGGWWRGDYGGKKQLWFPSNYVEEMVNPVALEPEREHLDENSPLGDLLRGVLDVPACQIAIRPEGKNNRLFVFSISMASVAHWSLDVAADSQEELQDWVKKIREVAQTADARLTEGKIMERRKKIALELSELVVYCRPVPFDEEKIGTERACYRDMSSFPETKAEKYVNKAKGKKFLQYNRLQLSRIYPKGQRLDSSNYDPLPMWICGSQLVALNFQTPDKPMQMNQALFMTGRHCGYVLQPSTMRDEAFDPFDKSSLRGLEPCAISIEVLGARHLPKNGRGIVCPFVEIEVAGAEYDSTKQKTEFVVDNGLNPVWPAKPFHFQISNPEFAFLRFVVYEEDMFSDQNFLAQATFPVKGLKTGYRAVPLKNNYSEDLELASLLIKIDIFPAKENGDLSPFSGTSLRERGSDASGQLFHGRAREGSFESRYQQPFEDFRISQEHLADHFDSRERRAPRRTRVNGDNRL
B3: Protein THEMIS (Homo sapiens), Q8N1K5-1 (parent)
chain: B2 chain

Variants of: B1
Conditions: with grb2_human GRB2, P62993
grb2_human GRB2, P62993, sequence (P62993 whole entry, looked up): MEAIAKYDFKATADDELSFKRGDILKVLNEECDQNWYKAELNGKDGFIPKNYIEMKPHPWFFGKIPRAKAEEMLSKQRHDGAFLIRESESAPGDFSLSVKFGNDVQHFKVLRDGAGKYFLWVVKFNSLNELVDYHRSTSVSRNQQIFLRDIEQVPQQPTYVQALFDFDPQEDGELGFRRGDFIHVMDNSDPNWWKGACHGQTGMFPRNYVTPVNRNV

Variant | effect of a mutation on the interaction
P557A;P560A | disrupting interaction strength

Variants of: B2
Conditions: with plcg1_human PLCG1, P19174

Variant | effect of a mutation on the interaction
P555A;P558A | decreasing interaction strength

Variants of: B3
Conditions: with grb2_human GRB2, P62993

Variant | effect of a mutation on the interaction
Y540A;Y541A | with no effect
Y540F;Y541F | with no effect

Variants of: B3
Conditions: with grb2_human GRB2, P62993
Remark: another data set of the same source

Variant | effect of a mutation on the interaction
Y540F;Y541F | disrupting interaction strength

Variants of: B3
Conditions: with grb2_human GRB2, P62993
Remark: another data set of the same source

Variant | effect of a mutation on the interaction
P554A | disrupting interaction strength
R556A | disrupting interaction strength
K559A | disrupting interaction strength
P557A | disrupting interaction strength

Variants of: B3
Conditions: with grb2_human GRB2, P62993
Remark: another data set of the same source

Variant | effect of a mutation on the interaction
P582A;P585A | with no effect
P555A;P558A | disrupting interaction strength

Variants of: B3
Conditions: with grb2_human GRB2, P62993
Remark: another data set of the same source

Variant | effect of a mutation on the interaction
P555A;P558A | disrupting interaction strength
